In patent US20080242601A1 (INSTITUTE PASTEUR, published 2008):
Where two headings read alike, the source gives them in different places. * marks the point of attachment. BODIPYFLEthylmaleimide = Cc1cc(C)n2c1C=C1C=CC(CCC(=O)NCCN3C(=O)CC(*)C3=O)=[N+]1[B-]2(F)F

T1: NEMO (NF-kB essential modulator), murine (murine, UniProt O88522 1-412)
T1 chain: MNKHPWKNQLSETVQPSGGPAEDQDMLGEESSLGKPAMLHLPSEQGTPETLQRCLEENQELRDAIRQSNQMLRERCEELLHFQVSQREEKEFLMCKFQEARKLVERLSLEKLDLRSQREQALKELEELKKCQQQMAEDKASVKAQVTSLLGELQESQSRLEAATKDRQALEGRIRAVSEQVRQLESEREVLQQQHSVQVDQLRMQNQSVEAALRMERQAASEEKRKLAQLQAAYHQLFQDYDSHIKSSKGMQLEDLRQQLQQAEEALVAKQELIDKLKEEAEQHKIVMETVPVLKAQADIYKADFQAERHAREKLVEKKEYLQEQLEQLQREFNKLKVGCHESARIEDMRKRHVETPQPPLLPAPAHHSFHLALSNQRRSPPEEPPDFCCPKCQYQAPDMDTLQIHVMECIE

B1: BODIPY-TAT-NLM-DR (peptide)
peptide: Ac-C(BODIPYFLEthylmaleimide)YGRKKRRQRRRLKAQADIYKARFQAERHAREK-NH2
SMILES: CC[C@H](C)[C@H](NC(=O)[C@H](CC(=O)O)NC(=O)[C@H](C)NC(=O)[C@H](CCC(N)=O)NC(=O)[C@H](C)NC(=O)[C@H](CCCCN)NC(=O)[C@H](CC(C)C)NC(=O)[C@H](CCCNC(=N)N)NC(=O)[C@H](CCCNC(=N)N)NC(=O)[C@H](CCCNC(=N)N)NC(=O)[C@H](CCC(N)=O)NC(=O)[C@H](CCCNC(=N)N)NC(=O)[C@H](CCCNC(=N)N)NC(=O)[C@H](CCCCN)NC(=O)[C@H](CCCCN)NC(=O)[C@H](CCCNC(=N)N)NC(=O)CNC(=O)[C@H](Cc1ccc(O)cc1)NC(=O)[C@H](CSC1CC(=O)N(CCNC(=O)CCC2=[N+]3C(=Cc4c(C)cc(C)n4[B-]3(F)F)C=C2)C1=O)NC(C)=O)C(=O)N[C@@H](Cc1ccc(O)cc1)C(=O)N[C@@H](CCCCN)C(=O)N[C@@H](C)C(=O)N[C@@H](CCCNC(=N)N)C(=O)N[C@@H](Cc1ccccc1)C(=O)N[C@@H](CCC(N)=O)C(=O)N[C@@H](C)C(=O)N[C@@H](CCC(=O)O)C(=O)N[C@@H](CCCNC(=N)N)C(=O)N[C@@H](Cc1c[nH]cn1)C(=O)N[C@@H](C)C(=O)N[C@@H](CCCNC(=N)N)C(=O)N[C@@H](CCC(=O)O)C(=O)N[C@@H](CCCCN)C(N)=O
B2: BODIPY-Ant-LZ (WT) (peptide)
peptide: Ac-C(BODIPYFLEthylmaleimide)RQIKIWFQNRRMKWKKLKAQADIYKADFQAERHAREKLVEKKEYLQEQLEQLQREFNKL-NH2
notes: Synthetic fusion peptide; also called cell permeable LZ
B3: BODIPY-Ant-NLM-DR (peptide)
peptide: Ac-C(BODIPYFLEthylmaleimide)RQIKIWFQNRRMKWKKLKAQADIYKARFQAERHAREK-NH2
SMILES: CC[C@H](C)[C@H](NC(=O)[C@H](CC(=O)O)NC(=O)[C@H](C)NC(=O)[C@H](CCC(N)=O)NC(=O)[C@H](C)NC(=O)[C@H](CCCCN)NC(=O)[C@H](CC(C)C)NC(=O)[C@H](CCCCN)NC(=O)[C@H](CCCCN)NC(=O)[C@H](Cc1c[nH]c2ccccc12)NC(=O)[C@H](CCCCN)NC(=O)[C@H](CCSC)NC(=O)[C@H](CCCNC(=N)N)NC(=O)[C@H](CCCNC(=N)N)NC(=O)[C@H](CC(N)=O)NC(=O)[C@H](CCC(N)=O)NC(=O)[C@H](Cc1ccccc1)NC(=O)[C@H](Cc1c[nH]c2ccccc12)NC(=O)[C@@H](NC(=O)[C@H](CCCCN)NC(=O)[C@@H](NC(=O)[C@H](CCC(N)=O)NC(=O)[C@H](CCCNC(=N)N)NC(=O)[C@H](CSC1CC(=O)N(CCNC(=O)CCC2=[N+]3C(=Cc4c(C)cc(C)n4[B-]3(F)F)C=C2)C1=O)NC(C)=O)[C@@H](C)CC)[C@@H](C)CC)C(=O)N[C@@H](Cc1ccc(O)cc1)C(=O)N[C@@H](CCCCN)C(=O)N[C@@H](C)C(=O)N[C@@H](CCCNC(=N)N)C(=O)N[C@@H](Cc1ccccc1)C(=O)N[C@@H](CCC(N)=O)C(=O)N[C@@H](C)C(=O)N[C@@H](CCC(=O)O)C(=O)N[C@@H](CCCNC(=N)N)C(=O)N[C@@H](Cc1c[nH]cn1)C(=O)N[C@@H](C)C(=O)N[C@@H](CCCNC(=N)N)C(=O)N[C@@H](CCC(=O)O)C(=O)N[C@@H](CCCCN)C(N)=O
B4: BODIPY-R7-NLM-DR (peptide)
peptide: Ac-C(BODIPYFLEthylmaleimide)RRRRRRRLKAQADIYKARFQAERHAREK-NH2
SMILES: CC[C@H](C)[C@H](NC(=O)[C@H](CC(=O)O)NC(=O)[C@H](C)NC(=O)[C@H](CCC(N)=O)NC(=O)[C@H](C)NC(=O)[C@H](CCCCN)NC(=O)[C@H](CC(C)C)NC(=O)[C@H](CCCNC(=N)N)NC(=O)[C@H](CCCNC(=N)N)NC(=O)[C@H](CCCNC(=N)N)NC(=O)[C@H](CCCNC(=N)N)NC(=O)[C@H](CCCNC(=N)N)NC(=O)[C@H](CCCNC(=N)N)NC(=O)[C@H](CCCNC(=N)N)NC(=O)[C@H](CSC1CC(=O)N(CCNC(=O)CCC2=[N+]3C(=Cc4c(C)cc(C)n4[B-]3(F)F)C=C2)C1=O)NC(C)=O)C(=O)N[C@@H](Cc1ccc(O)cc1)C(=O)N[C@@H](CCCCN)C(=O)N[C@@H](C)C(=O)N[C@@H](CCCNC(=N)N)C(=O)N[C@@H](Cc1ccccc1)C(=O)N[C@@H](CCC(N)=O)C(=O)N[C@@H](C)C(=O)N[C@@H](CCC(=O)O)C(=O)N[C@@H](CCCNC(=N)N)C(=O)N[C@@H](Cc1c[nH]cn1)C(=O)N[C@@H](C)C(=O)N[C@@H](CCCNC(=N)N)C(=O)N[C@@H](CCC(=O)O)C(=O)N[C@@H](CCCCN)C(N)=O
B5: CC2 (WT) (peptide)
peptide: Ac-SKGMQLEDLRQQLQQAEEALVAKQELIDKLKEEAEQHKIV-NH2
notes: Synthetic peptide; Forms a trimer by gel filtration at 10 uM; also called CC2 peptide; CC2 wild type

Key:
[1] = molecular target: T1, NEMO (NF-kB essential modulator), murine; assay: cell-based or functional assay
[2] = molecular target: T1, NEMO (NF-kB essential modulator), murine; assay: cell-based or functional assay
[3] = molecular target: T1, NEMO (NF-kB essential modulator), murine; assay: cell-based or functional assay
[4] = molecular target: B5; assay: fluorescence anisotropy, fixed BODIPY-Ant-LZ (0.1 µM) with CC2
Protocol: (A) Direct titration of BODIPY-Ant-CC2 (1 μM) with CC2 by fluorescence anitropy. The concentration of CC2 was determined by amino acid analysis. Anisotropy values of BODIPY-Ant-CC2 in milliunits (mA) were plotted against an increasing concentration of the CC2 peptide. […] The two dashed lines represent a stoichiometric titration and intersect at an CC2 concentration of 16 μM. Given the 1 μM concentration of the BODIPY-Ant-CC2, this gives a complex stoechiometrie of 0.8. (B) Direct titration of BODIPY-Ant-LZ (0.1 μM with CC2 by fluorescence anitropy. The anisotropy values of the BODIPY-Ant-LZ alone (white bar) or in the presence of the CC2 peptide (30 μM, grey bar; 100 μM, black bar) are given in milliunits (mA).
Anisotropy measurements were performed with a PTI Quantamaster fluorometer equipped with polarizers for the excitation and emission beams. This instrument uses a PMT in the L-configuration. […] Steady-state fluorescence anisotropy was expressed as millianisotropy (mA) and was calculated according to the equations: (1) A=(I_VV-GIVH)/(IVV+2GIVH); (2) G=IHV/IHH.; where A is anisotropy, G is a correction factor for wavelength-dependent distortion and I is the fluorescence intensity component (subscript referring to the vertical and horizontal positioning at the excitation and emission polarizers, respectively). […]

[5] = molecular target: the molecule itself; assay: gel filtration (Superdex 75) at 10 µM, self-association
Protocol: The oligomeric states of peptides were determined by filtration as described in Traincard et al., 2003. In brief, 500 μl samples were loaded on a Superdex 75 HR 10/30 column equilibrated in 50 mM Tris-HCl pH 8.0 containing 200 mM NaCl and 0.1 mM DDM, at a constant flow rate of 0.4 ml/min. The presence of the DDM detergent was added in the equilibrium buffer to minimize the adsorption in the column and to increase the peptide recovery. The column was calibrated in the same equilibrium buffer with blue dextran 2000 (void volume), dithioerythritol (total volume), bovine serum albumin (67 kDa, Rs=35.2 Å), ovalbumine (43 kDa, Rs=27.5 Å), chymotrypsinogen A (25 kDa, Rs=21.1 Å), ribonuclease A (13.7 kDa, Rs=16.4 Å), cytochrome C (12.4 kDa, Rs=17.7 Å) and aprotinin (6.5 KDa, Rs=13.5 Å).
The antennapedia sequence is a protein transduction domain (PTD) which adopts an alpha-helical amphiphatic structure (Prochiantz, 2000, Curr. Opin. Cell Biol.). […] To examine the effect of N-fusion of the antennapedia peptide on the oligomerization properties of the CC2 and the LZ peptides, the present inventors analyzed peptides containing or not containing the antennapedia sequence at their N-terminus by gel filtration. […]

In the case of BODIPY-Ant-CC2 (WT) (peptide), the IC50 of inhibition of LPS-induced NF-κB activation (β-galactosidase reporter, 70Z3-C3 cells) [1] is reported as 22000 nM, the fold reduction of LPS-induced NF-κB activation at 10 µM (stringent β-galactosidase assay) [1] is reported as 1.7 fold and the reduction of NF-κB activity at 20 µM after LPS stimulation of B lymphocytes [1] is reported as 70%.

B1 was tested, and the “IC 50 (inhibition of NF-κB activation pathway)” value [2] was 1000 nM.

With Ac-C(BODIPYFLEthylmaleimide)RRRRRRRRRLKAQADIYKARFQAERHAREK-NH2 (not fully specified) [BODIPY-R9-NLM-DR] the “IC 50 (inhibition of NF-κB activation pathway)” value [2] was 900 nM.

In the case of B2, the “IC50 of inhibition of LPS-induced NF-κB activation (β-galactosidase reporter, 70Z3-C3 cells)” value [3] is reported as 3000 nM, the “fold reduction of LPS-induced NF-κB activation at 10 µM (stringent β-galactosidase assay)” value [3] is reported as 5.8 fold and the binding result [4] is reported as “binds”.

B3 was tested, and the “IC 50 (inhibition of NF-κB activation pathway)” value [2] was 1100 nM.

In the case of B4, the “IC 50 (inhibition of NF-κB activation pathway)” value [2] is reported as 900 nM.

B5: binds [5].
